In the Immune Epitope Database (IEDB):
Blank lines part the entries; values can stand above or below the sequence they belong to.

Columns and labels:
[1] = biological target: HLA-A*30:01; assay: IEDB peptide-MHC binding, purified MHC/competitive/radioactivity; filed as Kd, often an IC50 or EC50 that approximates it; ≥ and ≤ were set here for values at or beyond the usual limits of such assays
[2] = biological target: HLA-B*40:01; assay: IEDB peptide-MHC binding, purified MHC/direct/fluorescence; filed as Kd, often an IC50 or EC50 that approximates it; ≥ and ≤ were set here for values at or beyond the usual limits of such assays
[3] = biological target: HLA-B*18:01; assay: as above
[4] = biological target: HLA-A*01:01; assay: IEDB peptide-MHC binding, purified MHC/competitive/radioactivity; filed as Kd, often an IC50 or EC50 that approximates it; ≥ and ≤ were set here for values at or beyond the usual limits of such assays
[5] = biological target: HLA-A*32:01; assay: as above
[6] = biological target: HLA-A*29:02; assay: as above
[7] = biological target: HLA-A*26:01; assay: as above
[8] = biological target: HLA-A*30:02; assay: as above
[9] = biological target: HLA-A*23:01; assay: as above
[10] = biological target: HLA-A*24:02; assay: as above
[11] = biological target: HLA-B*08:01; assay: IEDB peptide-MHC binding, purified MHC/direct/fluorescence; filed as Kd, often an IC50 or EC50 that approximates it; ≥ and ≤ were set here for values at or beyond the usual limits of such assays; settings: source organism: SARS-CoV1
[12] = biological target: HLA-B*27:05; assay: as above; settings: source organism: SARS-CoV1
[13] = biological target: HLA-A*11:01; assay: as above; settings: source organism: SARS-CoV1
[14] = biological target: HLA-A*68:02; assay: IEDB peptide-MHC binding, purified MHC/competitive/radioactivity; filed as Kd, often an IC50 or EC50 that approximates it; ≥ and ≤ were set here for values at or beyond the usual limits of such assays
[15] = biological target: HLA-B*44:02; assay: IEDB peptide-MHC binding, purified MHC/direct/fluorescence; filed as Kd, often an IC50 or EC50 that approximates it; ≥ and ≤ were set here for values at or beyond the usual limits of such assays; settings: source organism: Influenza A virus (A/Duck/Shantou/2144/00(H9N2))
[16] = biological target: HLA-B*51:01; assay: IEDB peptide-MHC binding, purified MHC/competitive/radioactivity; filed as Kd, often an IC50 or EC50 that approximates it; ≥ and ≤ were set here for values at or beyond the usual limits of such assays
[17] = biological target: HLA-A*11:01; assay: as above; settings: source organism: Dengue virus 2 Jamaica/1409/1983
[18] = biological target: HLA-A*03:01; assay: as above; settings: source organism: Dengue virus 2 Jamaica/1409/1983
[19] = biological target: HLA-A*02:01; assay: IEDB peptide-MHC binding, purified MHC/direct/fluorescence; filed as Kd, often an IC50 or EC50 that approximates it; ≥ and ≤ were set here for values at or beyond the usual limits of such assays; settings: source organism: SARS-CoV1
[20] = biological target: HLA-A*31:01; assay: as above; settings: source organism: SARS-CoV1
[21] = biological target: HLA-B*15:01; assay: as above; settings: source organism: SARS-CoV1
[22] = source organism: Vaccinia virus WR
[23] = source organism: Orthohantavirus hantanense
[24] = source organism: Mammarenavirus juninense
[25] = source organism: Dengue virus 4 Dominica/814669/1981
[26] = source organism: Dengue virus 2 Jamaica/1409/1983
[27] = source organism: Mammarenavirus guanaritoense
[28] = source organism: Lassa virus Josiah
[29] = source organism: Mammarenavirus tacaribeense
[30] = source organism: Influenza A virus (A/Duck/Shantou/2144/00(H9N2))
[31] = source organism: Lymphocytic choriomeningitis virus (strain Armstrong)
[32] = source organism: Dengue virus 1 Brazil/97-11/1997

Sequence: AARDRQFEK
Kd [1, 22]: 104 nM

Sequence: AEAAGCSMI
Kd [2, 23]: 4.5 nM
Kd [3, 23]: ≥ 20000 nM

Sequence: ASAHVRQSEY
Kd [4, 24]: 4.53 nM
Kd [5, 24]: 827 nM
Kd [6, 24]: 102 nM
Kd [7, 24]: ≥ 24700 nM
Kd [1, 24]: 2730 nM
Kd [8, 24]: 5.79 nM

Sequence: ASRRSWPLN
Kd [1, 25]: 50.2 nM

Sequence: ATREAQKRA
Kd [1, 26]: 27.4 nM

Sequence: CTLEGVWAPF
Kd [4, 27]: 1220 nM
Kd [5, 27]: 44.2 nM
Kd [6, 27]: 957 nM
Kd [7, 27]: 116 nM
Kd [1, 27]: 6960 nM
Kd [8, 27]: 937 nM

Sequence: DCIMTSYQYL
Kd [9, 28]: 5330 nM
Kd [10, 28]: 2310 nM
Kd [4, 28]: 3860 nM
Kd [5, 28]: 3040 nM
Kd [6, 28]: 14200 nM
Kd [7, 28]: 12600 nM
Kd [1, 28]: 4430 nM
Kd [8, 28]: 10400 nM

Sequence: DTVTYKCPLL
Kd [1, 25]: 3080 nM

Sequence: EHYVRITGL
Kd [11]: 3530 nM
Kd [12]: ≥ 46900 nM
Kd [13]: ≥ 24300 nM

Kd ([14]; source organism: Homo sapiens): 1060 nM
Sequence: ELCAEAEEL

Kd ([14]; source organism: Homo sapiens): 68.8 nM
Sequence: ELTCLNEASV

Sequence: ETWMSSEGA
Kd [14, 26]: 2.86 nM

Sequence: FVAAALHNV
Kd [4, 29]: ≥ 20500 nM
Kd [5, 29]: ≥ 77800 nM
Kd [6, 29]: 13500 nM
Kd [7, 29]: 2540 nM
Kd [1, 29]: 6100 nM
Kd [8, 29]: ≥ 76900 nM

Sequence: GEETIEERF
Kd [2, 30]: 134 nM
Kd [3, 30]: 3380 nM
Kd [15]: ≥ 20000 nM

Sequence: GIFMTATPPG
Kd [1, 26]: 1220 nM

Sequence: GPDIYKGVY
Kd [9, 31]: ≥ 77700 nM
Kd [10, 31]: ≥ 77500 nM
Kd [4, 31]: ≥ 32200 nM
Kd [5, 31]: ≥ 77800 nM
Kd [6, 31]: 2470 nM
Kd [7, 31]: ≥ 77900 nM
Kd [1, 31]: ≥ 66200 nM
Kd [8, 31]: 1820 nM

Sequence: IELEHLRGL
Kd ([3]; source organism: Giardia lamblia ATCC 50803): 10 nM

Sequence: IPPTAGILA
Kd [16, 32]: 5550 nM

Sequence: ITVSGLYPLA
Kd ([1]; source organism: Dengue virus 4 Philippines/H241/1956): 462 nM

Sequence: KITAEWLWK
Kd [17]: 1440 nM
Kd [1, 26]: 536 nM
Kd [18]: 99.4 nM

Sequence: KKMIRPQPME
Kd [1, 32]: 8740 nM

Sequence: KLFIRQEEV
Kd [11]: 2850 nM
Kd [19]: 400 nM
Kd [20]: 130 nM
Kd [21]: 14900 nM

Sequence: KNKIPFLLL
Kd [1, 22]: 92.4 nM

Sequence: KPWDVVPMV
Kd [16, 26]: 1440 nM

Sequence: KTDFSNIRA
Kd ([1]; source organism: Vaccinia virus Copenhagen): 209 nM

Sequence: KYSRSKPAA
Kd [1, 22]: 5.71 nM
